Target: T1, S6N, N-terminal fragment of Surfeit locus protein 6 (SURF6), residues 1-182 (human, UniProt O75683 1-182)
T1 construct: Surfeit locus protein 6 (SURF6), human, 361 amino acids; N-terminal construct of residues 1-182 with R-motifs R1 and R2; In imaging experiments 10% was labelled with Alexa Fluor 647 at Cys19; also called SURF6 N-terminal construct; source: E. coli BL21 Rosetta 2 (DE3), purified from inclusion bodies (Ni-NTA under denaturing conditions, TEV cleavage, C4 HPLC)
T1 sequence (looked up): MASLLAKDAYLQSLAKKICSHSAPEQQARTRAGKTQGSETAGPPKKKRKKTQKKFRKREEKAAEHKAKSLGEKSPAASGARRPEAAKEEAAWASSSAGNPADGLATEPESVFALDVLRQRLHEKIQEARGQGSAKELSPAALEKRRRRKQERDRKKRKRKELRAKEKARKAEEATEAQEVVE
Assay: not stated; method and conditions not shown in the main text (Supplementary Fig. 13)
Settings: both partners purified

Kd: 350 nM
B1: IDR of NPM1 (domain or fragment, UniProt P06748 120-240, looked up)
chain: EEDAESEDEEEEDVKLLSISGKRSAPGGGSKVPQKKVKLAADEDDDDDDEEDDDEDDDDDDFDDEEAEEKAPVKKSIRDTPAKNAQKSNQNGKDSKPSSTPRSKGQESFKKQEKTPKTPKG
notes: Nucleophosmin (NPM1), central intrinsically disordered region; also called NPM1-IDR
